Drawing on US20130190246A1, this text covers Kd, EC50 (read off the curve) and amount remaining bound after 1 week of extensive rinsing (equivalent concentration) for three molecules.

The target of assay [1] is Type I fibrillar collagen (Chronolog, Havertown, Pa.). Nature of the assay: plate binding assay on fibrillar collagen, biotin label detected with streptavidin-HRP, saturation curve fit.
Assay [2] shares this target. Nature of the assay: plate assay on fibrillar collagen, biotin labeled peptidoglycan detected with streptavidin-HRP, Abs 450 nm.
The target is the same in assay [3]. Nature of the assay: diffusion from fibrillar collagen coated plate at 37° C., loaded at 10 µM, biotin label detected with streptavidin-HRP.
Assay [4] deals with collagen (type and supplier not stated; Examples 11 and 12). Nature of the assay: SPR (Biacore 2000, CM-3 chip), collagen immobilized, peptide in flow at 100 µM to 1.5 µM. For orientation: In SPR one partner is held on a chip, and binding of the other changes the refractive index at the surface.

Where no end group is shown, it is not given here. Side-chain parts run from the residue outwards. dermatan sulfate = dermatan sulfate, the glycan component of the peptidoglycan; BMPH = crosslinker coupling the Cys thiol to oxidized dermatan sulfate

B1: biotin labeled peptidoglycan DS-SILY18 (DS-SILY18-biotin) (peptide)
peptide: RRANAALKAGELYKSILYGC([BMPH-dermatan sulfate])
modifications: not fully specified (C-terminus); also: 18 SILY peptides per dermatan sulfate, 2 of them biotin labeled, biotin position not given here
For B1, in assay [1], the dissociation constant Kd (commonly the constant that tells how readily two partners part at equilibrium) worked out at 24 nM. The half-maximal effective concentration (EC50 (read off the curve)) (commonly the concentration needed to bring the measured effect to its halfway point) in assay [2] worked out at 20 nM. Moreover, in assay [3], the amount remaining bound after 1 week of extensive rinsing (equivalent concentration) stood at 10 nM.

B2: biotin labeled peptidoglycan DS-SILY4 (DS-SILY4-biotin) (peptide)
peptide: RRANAALKAGELYKSILYGC([BMPH-dermatan sulfate])
modifications: not fully specified (C-terminus); also: 4 SILY peptides per dermatan sulfate, biotin label on every peptide, position not given here
As for B2, the Kd in assay [1] amounted to 118 nM. Moreover, the EC50 (read off the curve) in assay [2] was 100 nM.
Take RRANAALKAGELYKSILYGC [peptide … (SILY)]: the Kd in assay [4] is 1200 nM.
